In PMC7422833:

Tests used:
Assay in all cases: SEC; 200 uL of purified protein on a Superdex 200 10/30 column in TBS with 5 mM EDTA, pH 7.4, 0.3 mL/min; elution at 280 nm compared with molecular weight standards (12.4 to 443 kDa) and with refolded reference preparations
[1] = biological target: recombinant fragment of human SP-A (rfhSP-A) expressed and isolated as a soluble protein using NT* (human)
[2] = biological target: recombinant fragment of human SP-D (rfhSP-D) expressed and isolated as a soluble protein using NT* (human)
[3] = biological target: rfhSP-A refolded using the previous refolding protocol using NTwt (human)
[4] = biological target: rfhSP-D expressed and purified without an expression tag using the standard rfhSP-D purification protocol (human)

Q: For “recombinant fragment of human SP-A (rfhSP-A) expressed and isolated as a soluble protein using NT* (domain or fragment)”, which percent of the protein eluting at the volume of the trimer [1] is on record?
A: The percent of the protein eluting at the volume of the trimer was 24%.

Q: And the stoichiometry N [1]?
A: Its stoichiometry N is 3.

Q: With “recombinant fragment of human SP-D (rfhSP-D) expressed and isolated as a soluble protein using NT* (domain or fragment)” as the substance, how does the percent of the protein eluting at the volume of the trimer [2] read?
A: Its percent of the protein eluting at the volume of the trimer is 88.5%.

Q: And the stoichiometry N [2]?
A: The stoichiometry N was 3.

Q: Which stoichiometry N [3] does the source give for “rfhSP-A refolded using the previous refolding protocol using NTwt (domain or fragment)” here?
A: The stoichiometry N was 3.

Q: For “rfhSP-D expressed and purified without an expression tag using the standard rfhSP-D purification protocol (domain or fragment)”, which stoichiometry N [4] is on record?
A: The stoichiometry N was 3.
